Experimental data as given in patent publication US20140186359A1 (TORAY INDUSTRIES, published 2014).

T1: human CAPRIN-1 expressed on the surface of human cancer cells (human, UniProt Q14444 2-709)
T1 construct: Endogenous CAPRIN-1 of human cancer cell lines or tissues; also called CAPRIN-1 proteins on the cell membrane surface
T1 sequence: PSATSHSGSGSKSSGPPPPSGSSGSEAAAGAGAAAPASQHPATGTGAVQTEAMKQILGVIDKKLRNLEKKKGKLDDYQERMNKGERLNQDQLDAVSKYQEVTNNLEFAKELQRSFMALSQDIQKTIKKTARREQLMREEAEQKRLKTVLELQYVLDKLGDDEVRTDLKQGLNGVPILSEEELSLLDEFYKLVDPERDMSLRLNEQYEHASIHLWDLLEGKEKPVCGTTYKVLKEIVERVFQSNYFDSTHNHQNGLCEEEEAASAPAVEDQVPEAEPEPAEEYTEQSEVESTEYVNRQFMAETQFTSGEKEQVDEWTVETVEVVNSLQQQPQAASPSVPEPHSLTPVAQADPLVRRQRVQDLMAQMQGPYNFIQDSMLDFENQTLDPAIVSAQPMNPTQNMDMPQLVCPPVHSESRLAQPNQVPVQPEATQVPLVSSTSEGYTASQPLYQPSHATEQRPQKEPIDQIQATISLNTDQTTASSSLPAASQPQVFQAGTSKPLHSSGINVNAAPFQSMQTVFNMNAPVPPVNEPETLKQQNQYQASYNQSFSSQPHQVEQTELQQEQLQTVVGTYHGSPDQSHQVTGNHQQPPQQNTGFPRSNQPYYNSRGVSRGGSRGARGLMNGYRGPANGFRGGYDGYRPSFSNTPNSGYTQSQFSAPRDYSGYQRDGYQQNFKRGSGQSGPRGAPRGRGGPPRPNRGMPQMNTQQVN

T2: partial CAPRIN-1 polypeptide consisting of the amino acid sequence of SEQ ID NO: 5 (human)
T2 construct: Peptide coupled to Immobilizer Amino ELISA plate
T2 peptide: VFNMNAPVPPVNEPETLK

B1: chicken monoclonal antibody #4 (antibody, V domains shown)
VH: AVTLDESGGGLQTPGGAVSLVCKGSGFTFSSYGMGWVRQAPGKGLEYVAAIRKDGSTNYGPAVKGRATISRDNGQSTVRLQLSNLRAEDTATYYCAKRSHTGVNAAKIDAWGRGTEVIVS
VL: ALTQPASVSANPGETVKITCSGASHNYGWFQQKSPGSAPVTVIYSNDKRPSDIPSRFSGSKSGSTATLTITGVQADDEAVYFCGGYNIYGPTFGAGTTLTV
notes: Chicken hybridoma antibody; also called anti-CAPRIN-1 chicken monoclonal antibody #4
B2: chicken monoclonal antibody #3 (antibody, V domains shown)
VH: AVTLDESGGGLQTPGGGLSLVCKGSGFTFSSFGMFWVRQAPGKGLEFVASISDNGRSTYYGSAVKGRATISRDDGQSTVRLQLNNLRAEDTGTYYCAKNAYVGRGCCFSYSIDAWGHGTEVIVS
VL: ALTQPASVSVNPGETVKITCSGGGSSSDAYGWYQQKSPGSAPVTLIYNGSNRPSHIPSRFSGSTSGSTNTLTITGVQVEDEAIYFCGSTDTSTSVGIFGAGTTLTV
notes: Chicken hybridoma antibody; also called anti-CAPRIN-1 chicken monoclonal antibody #3
B3: human-mouse chimeric comparative monoclonal antibody 6 (antibody, human IgG1, kappa)
heavy: not shown
light: DRVSITCKASQNVRTAVAWYQQKPRQSPKALIYLASNRDTGLPDRFPGRGSGTDFTLNITNVQSEDLEDYFCLQHCNYPNEFRGCTKVPITVAAPSVFIFPPSDEQLKSGTASVVCLLNNFYPREAKVQWKVDNALQSGNSQESVTEQDSKDSTYSLSSTLTLSKADYEKHKVYACEVTHQGLSSPVTKSFNRGEC
B4: human-mouse chimeric comparative monoclonal antibody 8 (antibody, human IgG1, kappa)
heavy: not shown
light: EFHAVSLGQRATISCRASESVDSYGNSFMHWYQQKPGQPPKLLIYRASNLESGIPARFSGSGSRTDFTLTINPVEADDVATYYCQQSNEDPGRSEVVPSWRSNKTVAAPSVFIFPPSDEQLKSGTASVVCLLNNFYPREAKVQWKVDNALQSGNSQESVTEQDSKDSTYSLSSTLTLSKADYEKHKVYACEVTHQGLSSPVTKSFNRGEC
B5: chicken monoclonal antibody #1 (antibody, V domains shown)
VH: AVTLDESGGGLQTPGGALSLVCKASGFTFRSHSMFWVRQAPGKGLEYVAGIYGVGRSIRYGSAVKGRATMSRDNGQSTVRLQLNNLRAEDTATYYCAKSGYFSNSRYWDSGAYFIDAWGHGTEVIVS
VL: ALTQPASVSANPGETVEITCSGGYSNYGWYQQKSPGSAPVTVIYYNDKRPSDIPSRFSGSKSGSTATLTITGVQAEDEAVYFCGGYDSSTDAGIFGAGTTLTV
notes: Chicken hybridoma antibody; also called anti-CAPRIN-1 chicken monoclonal antibody #1
B6: human-mouse chimeric comparative monoclonal antibody 7 (antibody, human IgG1, kappa, V domains shown)
VH: LQESGAELARPGASVKLSCKASGYTFTSYWMQWVKQRPGQGLEWIGAIYPGDGDTRYTQKFKGKATLTADKSSSTAYMQLSSLASEDSAVYYCARGEYGNYFAYWGQGTTVTVSS
VL: TSDASLGERVTITCKASQDINSYLSWFQQKPGKSPKTLIYRANRLVDGVPSRFSGSGSGQDYSLTISSLEYEDMGIYYCLQYDEFPLTFGGGTKLEIKQ
B7: human-mouse chimeric comparative monoclonal antibody 10 (antibody, human IgG1, kappa)
heavy: not shown
light: RLPFYSLEQRATISYRASKNVSTSGYSYMHWNQQKPGQPPKLLIYLVSNLESGVPARFSGSGSGTDFTLNIHPVEEEDAATYYCQHIRELTRSELVPSWKSNTVAAPSVFIFPPSDEQLKSGTASVVCLLNNFYPREAKVQWKVDNALQSGNSQESVTEQDSKDSTYSLSSTLTLSKADYEKHKVYACEVTHQGLSSPVTKSFNRGEC
B8: mouse monoclonal antibody #1 (antibody, V domains shown)
VH: GPGLVQPSQSLSITCTVSGFSLTTYDLHWVRQSPGKGLEWLGVIWSGGSTDYNAAFISRLSISKDNSKSQVFFKMNSLQANDTAIYYCARNYGYSAWFAYWGQGTLVTVSA
VL: DVLMTQTPLSLPVSLGDQASISCRSSQSIVHSNGNTYLEWYLQKPGQSPKLLIYKVSNRFSGVPDRFSGSGSGTDFTLKISRVEAEDLGVYYCFQGSHVPLTFGAGTKLELKR
notes: Mouse hybridoma antibody; detected with anti-mouse IgG; also called anti-CAPRIN-1 monoclonal antibody #1
B9: mouse monoclonal antibody #2 (antibody, V domains shown)
VH: GGGLVKPGGSLKLSCAASGFTFSSYGMSWVRQTPEKRLEWVATISSGGSYTYYPDSVKGRFTISRDNAKNTLYLQMSSLRSEDTAMYYCASLASYYFDYWGQGTTLTVSS
VL: DVQMIQSPSSLSASLGDIVTMTCQASQGTSINLNWFQQKPGKAPKLLIYGASSLEDGVPSRFSGSCFGTDFTLTISSLEDEDMATYFCLQHSYLPPLTFGAGTKLELKR
notes: Mouse hybridoma antibody; detected with anti-mouse IgG; also called anti-CAPRIN-1 monoclonal antibody #2
B10: mouse monoclonal antibody #3 (antibody, V domains shown)
VH: GGGLVKPGGSLKLSCAASGFTFSSYGMSWVRQTPEKRLEWVATISSGGSYTYYPDSVKGRFTISRDNAKNTLYLQMSSLRSEDTAMYYCASLASYYFDYWGQGTTLTVSS
VL: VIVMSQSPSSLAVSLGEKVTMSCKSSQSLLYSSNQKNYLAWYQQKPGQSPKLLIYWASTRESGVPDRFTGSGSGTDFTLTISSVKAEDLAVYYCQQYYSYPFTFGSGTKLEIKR
notes: Mouse hybridoma antibody; detected with anti-mouse IgG; also called anti-CAPRIN-1 monoclonal antibody #3

How the values were obtained:
[1] = molecular target: T1, human CAPRIN-1 expressed on the surface …; experiment: flow cytometry on the listed human cancer cell lines, culture supernatant, against secondary antibody only
Method: 10⁶ cells of each cell line were centrifuged in each 1.5-ml microcentrifuge tube. Each culture supernatant (100 μl) containing any of the antibodies #1, #2, and #3 and the chicken monoclonal antibodies #1, #2, #3, and #4 was added to the tube and left to stand for 1 hour on ice. After washing with PBS, FITC-labeled goat anti-mouse IgG (H+L) antibodies (manufactured by Jackson ImmunoResearch Laboratories, Inc.) diluted with PBS containing 0.1% FBS for the mouse-derived antibodies or FITC-labeled goat anti-chicken IgG (H+L) antibodies (manufactured by SouthernBiotech) diluted 100-fold with PBS containing 0.1% FBS for the chicken-derived antibodies were added thereto and left to stand at 4° C. for 30 minutes. After washing with PBS, the fluorescence intensity was measured using FACSCalibur (Becton, Dickinson and Company). The negative control used was cells reacted only with secondary antibodies. As a result, all the cells each treated with any of the antibodies #1, #2, and #3 and the chicken monoclonal antibodies #1 to #4 had fluorescence intensity at least 35% stronger than that of the negative control. […] The rates of enhancement in the fluorescence intensity was expressed as the rates of increase in mean fluorescence intensity (MFI) in respective cell lines, which are calculated according to the following formula.

[2] = molecular target: T1, human CAPRIN-1 expressed on the surface …; experiment: cell-based or functional assay
[3] = molecular target: T2, partial CAPRIN-1 polypeptide consisting …; experiment: peptide ELISA, culture supernatant
Method: The obtained mouse monoclonal antibodies #2 and #3 were examined for their specific reaction with the amino acid sequence of SEQ ID NO: 5 as a partial CAPRIN-1 sequence used as an immunogen. A 30 μg/ml solution of the amino acid sequence of SEQ ID NO: 5 prepared with a 0.1 M aqueous sodium carbonate solution and a partial CAPRIN-1 sequence free from the amino acid sequence of SEQ ID NO: 5 were each added to a 96-well plate Immobilizer Amino for ELISA (Nunc) at […] and reacted for one whole day and night at 4° C. to bind the peptides to the wells. A 0.1 M aqueous sodium carbonate solution containing 10 mM ethanolamine was added to the peptide-bound wells and left to stand at room temperature for 1 hour. The solution in each well was removed, and each well was then washed with PBS-T. Then, a Blockace solution was added thereto at 400 μl/well and left to stand at room temperature for 3 hours. The solution in each well was removed, and each well was washed with PBS-T. Then, the culture supernatant containing the mouse monoclonal antibody #2 was added thereto at […] and reacted at room temperature for 1 hour. […] The absorbance was measured at 450 nm and 595 nm using an absorption spectrometer.

Binder	rate of increase in mean fluorescence intensity [1]	ADCC cytotoxic activity (51Cr release) against Caki-2 [2]	ADCC cytotoxic activity (51Cr release) against HCT-116 [2]	ADCC cytotoxic activity (51Cr release) against MCF7 [2]	ADCC cytotoxic activity (51Cr release) against MIAPaCa-2 [2]	ADCC cytotoxic activity (51Cr release) against QG56 [2]	ADCC cytotoxic activity (51Cr release) against all other cancer cell lines listed [2]	binding result [3]
B1	≥ 35%	–	–	–	–	–	–	–
B2	≥ 35%	–	–	–	–	–	–	–
B3	–	< 8%	< 3%	< 5%	7%	< 5%	< 4%	–
B4	–	< 8%	< 3%	< 5%	7%	< 5%	< 4%	–
B5	≥ 35%	–	–	–	–	–	–	–
B6	–	< 8%	< 3%	< 5%	7%	< 5%	< 4%	–
B7	–	< 8%	< 3%	< 5%	7%	< 5%	< 4%	–
B8	≥ 35%	–	–	–	–	–	–	–
B9	≥ 35%	–	–	–	–	–	–	–
B10	≥ 35%	–	–	–	–	–	–	binds
